From patent US20090275105A1, “PROCESS FOR THE PRODUCTION OF BROMELAIN BY MEANS OF SUBSTANCES THAT INDUCE PROTEINS IN PINEAPPLE PLANTS” (priority 2006, published 2009)

Assays:
[1] = test system: pineapple plants (Ananas comosus); experiment: Specific enzyme activity of raw extract from pineapple plantlets induced in vitro (Dapeau method); format: in vivo; conditions: sacarose 30-90 g/L as inducer
Protocol: In order to perform the evaluation of the inducers, a factor design was carried out of 3×3×3 with three inducers at three different concentrations and three monitoring times (Chart 4), for each treatment The evaluations are carried out using the inducers separately or in combination giving a total of […]. […] The induction was begun with the selection of the sprouts previously established in vitro with a size of 2 cm and an average of 3 leaves and weighing 120 mg. […] Once the inducers are added to the modified SS, it is sterilized at 121° C., at a pressure of 1.2 kg/cm^2 for 20 minutes. In the treatments that contain salicylic acid, the modified SS medium is first sterilized and later the acid is added, which was sterilized through filtration, under aseptic conditions in a laminar flow hood. Here it is advisable to add the acid to the medium before it is cooled to achieve the homogenization of the inducer with the medium before it is solidified. The sprouts are planted under aseptic conditions in 460 ml flasks that contain 30 ml of the Induction SS, said flasks are closed and sealed with clear tape in order to avoid any filtering of air and with the air, contamination of same. The treatments are moved to a growth room under controlled conditions at 27±2° C. and a photoperiod of 16 hr/light and 8 hr/darkness for a period of 7, 15, 30 and 45 days. […]

[2] = Comparison of the specific activity of bromelain obtained from different methods; format: biochemical, Ananas comosus; conditions: 30 mg/ml protein sample; inducers: 15 days from induction
Protocol: The plantlets grown in vitro in different culture mediums indicated in this invention were taken and rinsed in running water to remove the Induction SS medium. 330 g of plants were weighed, placed in an extractor to be ground and 200 ml of juice was obtained (first extraction) that was stored at a temperature of 4° C. 670 ml of extraction buffer (monobasic potassium phosphate and dibasic potassium phosphate) is added to the pulp obtained from the extraction at a pH of 6.1 and a concentration of 0.05M; this is allowed to repose for 20 minutes in order to afterwards collect the enzyme and pass it through an extractor and thus obtain the second juice. The following step is to mix and homogenize the juice from the first extraction with the second extraction for 1 minute at 2000 rpm and to then centrifuge at 10000 rpm for 20 min. at 4° C., to afterwards recover the supernatant with a volume of approximately 800 ml which is frozen at −80° C. and lyophilized (10% of solids) for its preservation. The extraction procedure is applied for all the treatments of which the amount of protein present is determined (Bradford) expressing the protein per ml of extract in mg. A standard curve is used for the protein tests. The standard used was bovine serum albumin at 0.20-1.0 mg/ml. Based on the results, the following specific activities were obtained compared with imported commercial bromelain and bromelain induced from in vitro plants.

[3] = fractioning with ammonium sulfate; cited from earlier work
[4] = bromelain obtained from stems; cited from earlier work
[5] = cited from earlier work

OC[C@H]1O[C@@](CO)(O[C@H]2O[C@H](CO)[C@@H](O)[C@H](O)[C@H]2O)[C@@H](O)[C@@H]1O [Sacarose]
specific activity in induction tests, comparison of inducers [1]: greater specific activity | Specific activity (U/mg^−1 protein) [2]: 635 U/mg^−1 protein

[Cl-].[Na+] [NaCl, sodium chloride]
Specific activity (U/mg^−1 protein) [2]: 4.98 U/mg^−1 protein

Bromelain
proteolytic activity [3]: 1.64 U/mg^−1 | Isoelectric Point p1 [4]: 9.55 | Stability in solutions of 25% methanol (v/v) ([5]; 25° C. for 20 min): stable | loss of activity when the enzymatic solution is heated ([5]; 55° C. for 20 min at pH 6): 50% | Optimal pH ([5]; Inagami and Murachi, 1963): approximately 7 | loss in activity caused by lyophilization ([5]; Murachi et al., 1964): 27%

O=C(O)c1ccccc1O [Salicylic acid]
Specific activity (U/mg^−1 protein) [2]: 3.17 U/mg^−1 protein
